Reference: WO2014065403A1 (dated 2014)
Residue numbers refer to the chain shown, from its start. Blank lines part the entries; values can stand above or below the binder they belong to.

How the values were obtained:
[1] = target: T1, partial length CD40 from CD40 amino acid residue 146 onward (human, UniProt P25942 146-277); assay: FACS on 293T cells transiently expressing partial length CD40
T1 construct: also called D4 (by its position in the series D1, D1B2, D2, D2B1, D3, D4); not shown: VSV-G tag added at the C-terminus

[2] = target: T2, partial length CD40 D3 (expressed from the 105th amino acid of CD40) (human, UniProt P25942 105-277); assay: FACS at 1 ug/mL on 293T cells transiently expressing partial length CD40
T2 construct: not shown: VSV-G tag added at the C-terminus

[3] = target: T3, partial length CD40 from CD40 amino acid residue 78 onward (human, UniProt P25942 78-277); assay: FACS on 293T cells transiently expressing partial length CD40
T3 construct: also called D2B1 (by its position in the series D1, D1B2, D2, D2B1, D3, D4); not shown: VSV-G tag added at the C-terminus

[4] = target: T4, partial length CD40 D2 (expressed from the 62nd amino acid of CD40) (human, UniProt P25942 62-277); assay: FACS at 1 ug/mL on 293T cells transiently expressing partial length CD40
T4 construct: not shown: VSV-G tag added at the C-terminus

[5] = target: T5, mouse CD40 (mouse, UniProt P27512 20-289); assay: FACS on CHO cells expressing mouse CD40
T5 construct: Stably expressed on CHO cells (pCXN3 vector)
T5 sequence: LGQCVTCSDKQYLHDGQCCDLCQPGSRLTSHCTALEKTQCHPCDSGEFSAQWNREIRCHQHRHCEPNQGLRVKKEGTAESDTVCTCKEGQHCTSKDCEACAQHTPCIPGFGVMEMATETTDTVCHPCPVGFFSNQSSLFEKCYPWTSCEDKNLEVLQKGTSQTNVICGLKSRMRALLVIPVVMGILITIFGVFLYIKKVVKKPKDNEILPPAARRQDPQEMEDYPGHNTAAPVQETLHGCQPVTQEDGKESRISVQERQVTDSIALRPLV

[6] = target: T6, cynomolgus monkey CD40 (cynomolgus monkey, UniProt P25942 21-277 (human entry)); assay: FACS on CHO cells expressing cynomolgus monkey CD40
T6 construct: Stably expressed on CHO cells (pCXN3 vector); also called cynomolgus CD40
T6 chain: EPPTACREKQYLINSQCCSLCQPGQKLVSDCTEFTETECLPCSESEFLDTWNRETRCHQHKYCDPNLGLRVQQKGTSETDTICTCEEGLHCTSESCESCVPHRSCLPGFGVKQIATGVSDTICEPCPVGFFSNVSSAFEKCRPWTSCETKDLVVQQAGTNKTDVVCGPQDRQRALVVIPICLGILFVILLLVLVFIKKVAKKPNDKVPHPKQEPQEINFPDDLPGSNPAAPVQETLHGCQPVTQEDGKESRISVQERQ

B1: antibody of SEQ ID NOs: 8 and 33 (antibody, V domains shown)
VH: EVQLQQSGPELVKPGASVKMSCKASGYTFTNYVMHWVKQKPGQGLEWIGYVNPYNDDTNYNERFKGKATLTSDKSSSTAYMELSSLTSEDSAVYYCARELTGTYWGQGTLVTVSA
VL: DIVMTQAAPSVPVTPGESVSISCRSSKSLLHSNGNTYLYWFLQRPGQSPQLLISRISNLASGVPDRFSGSGSGTAFTLRISRVEAEDVGVYYCMQHVEYPFTFGSGTKLEIK
notes: clone name not tied; The text speaks of the mature part of these entries
binding result [1]: no binding (tested: 1 μg/mL)
binding result [2]: binds

B2: antibody of SEQ ID NOs: 16 and 41 (antibody, V domains shown)
VH: EVQLQQSGPELVKPGASVKMSCKASGYTFINYVIHWVKQKPGQGLEWIGYINPYNDDSNYNEKFKGKATLTSDKSSSTAYMELRSLTSEDSAIYYCARDLIGSYWGQGTTLTVSS
VL: B1 VL with P12I, L38F, V90I, V97L, S105A, L109V, I111L
notes: as for B1
binding result [1]: no binding (tested: 1 μg/mL)
binding result [2]: binds

B3: antibody of SEQ ID NOs: 28 and 53 (antibody, V domains shown)
VH: EVQLQQSGAELVKPGASVKLSCTGSGFNIKDTYMHWVKQRPEQGLEWIGRIDPANGNTKFDPKFQGKATITADTSTNTAYLQVSSLTSEDTAVYYCVRYGYDGYFDYWGQGTTLTVSS
VL: QIVLTQSPAIMSASPGEKVTMTCSVSSSISYMYWYQQKPGTSPKRWIYDTSKLASGVPARFSGSGSGTSYSLTISSMEAEDAATYYCHQRSSYPLTFGAGTKLELK
notes: as for B1
binding result [3]: no binding (tested: 1 μg/mL)
binding result [4]: binds

B4: mouse antibody PPAT-071-04 (antibody, V domains shown)
VH: EVQLQQSGPELVKPGASMKISCKASGYSFADYTMNWVKQSHGKKLEWIGLINPYNGGTSYNQKFKDKATLTVDKSSSTAYMELLSLTTEDSAVYYCAEGVNNFADWGQGTTLTVSG
VL: DIVLTQSPTSLAVFLGQRATISCRASKSVSTSGYSYMHWYQQKPGQSPKPLIYLASNLESGVPARFSGSGSGTDFTLNIHPVEEEDAATYYCQHSRELPRTFGGGTKLEIK
notes: Mouse monoclonal IgG from ascites; also called hybridoma NITE BP-01435
binding result [5]: no binding
binding result [6]: binds
binding result [1]: no binding (tested: 1 μg/mL)
binding result [2]: binds

More lines, now with the values ahead:

binding result [3]: no binding (tested: 1 μg/mL)
binding result [4]: binds
B5: antibody of SEQ ID NOs: 12 and 37 (antibody, V domains shown)
VH: EVQLQHSGAELVKPGSSVKLSCTASDFNIKDAYMHWVKQRPEQGLEWIGRIDPANGKTKYDPKFQDKATITADTSSNTAYLQLNSLTSEDTAVYYCPRNYYGSRYGYFDVWGAGTTVTVSS
VL: QIVLTQSPAILSASPGEKVTITCSASSSVDYMFWFQQKPGTSPKLWIYTTSNLASGVPTRFSGSGSGTSYSLTISRMEAEDAATYYCHQRSSYPLTFGAGTKLELK
notes: as for B1

binding result [3]: no binding (tested: 1 μg/mL)
binding result [4]: binds
B6: antibody of SEQ ID NOs: 13 and 38 (antibody, V domains shown)
VH: EVQLQQSGAELVKPGASVKLSCTASGFNIKDSYIHWVKQRPEQGLEWIGRIDPANGNTKYDPKFQGKATITSDTSSSTAYLQLTSLTSEDTAVYYCPRNYYGSTYGYFDVWGAGTTVTVSS
VL: B5 VL with L11M, D30S, Y31N, F33H, P39A, T49R, T59A, H88Q, R90G
notes: as for B1

binding result [1]: no binding (tested: 1 μg/mL)
binding result [2]: binds
B7: antibody of SEQ ID NOs: 15 and 40 (antibody, V domains shown)
VH: QVQLQQSGAELARPGASLKMSCKASGYTFTSYTIHWIKQRPGQGLEWIGYINPSSGYTNDNQKFKDKATLTADKSSTTAYMQLSSLTSEDSAVYYCARLGRPFDYWGQGTTLTVSS
VL: EIVLTQSPALMAASPGEKVTITCSVSSSISSSNLHWYQQKSETSPKPWIYGTSNLASGVPVRFSGSGSGTSYSLTISSMEAEDAATYYCQQWSTYPLTFGSGTKLEIK
notes: as for B1
